From US20230257472A1 (JIANGSU HENGRUI MEDICINE, published 2023)
Residue numbers refer to the chain shown, from its start.

T1: human CD70 on cells (CD70-positive 786-O cells, Raji cells, CHO-S cells expressing human full-length CD70, … (human, UniProt P32970 1-193))
T1 construct: whole, on cells; Endogenous on 786-O, Raji and U266 cells; transfected full-length human CD70 on CHO-S cells; also called CD70-positive cells
T1 sequence (looked up): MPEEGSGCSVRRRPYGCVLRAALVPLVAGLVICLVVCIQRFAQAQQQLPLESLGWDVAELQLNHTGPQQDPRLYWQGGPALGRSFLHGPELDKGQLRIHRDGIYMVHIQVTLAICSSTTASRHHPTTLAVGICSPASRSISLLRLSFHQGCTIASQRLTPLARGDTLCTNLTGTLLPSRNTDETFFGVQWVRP

T2: His-tagged CD70 protein extracellular domain (His-TNC-CD70) (human)
T2 construct: Expressed in 293 cells; also called human His-TNC-CD70 antigen; human CD70 antigen
T2 chain: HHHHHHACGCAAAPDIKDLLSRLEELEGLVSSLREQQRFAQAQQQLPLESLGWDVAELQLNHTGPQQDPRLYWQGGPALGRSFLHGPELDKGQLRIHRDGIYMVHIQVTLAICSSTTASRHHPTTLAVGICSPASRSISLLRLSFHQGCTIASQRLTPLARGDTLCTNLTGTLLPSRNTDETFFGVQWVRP

B1: huF4011 (afuc) (antibody, human IgG1, kappa, V domains shown)
VH: EVQLVQSGAEVKKPGSSVKVSCKASGDTFPRYNMHWVRQAPGQGLEWMGAIFPGTGETSYNQNFKGRVTLTADKSTSTAYMELSSLRSEDTAVYYCARNSYYDYAWFTYWGQGTLVTVSS
VL: DIVMTQSPDSLAVSLGERATINCRASKSVSSSGYSFMHWYQQKPGQPPKLLISLADNLESGVPDRFSGSGSGTDFTLTISSLQAEDVAVYYCQHSREFPPTFGQGTKLEIKR
modifications: non-fucosylated (heavy chain not modified by fucosylation)
notes: also called non-fucosylated antibody of huF4011
B2: huB1010 (afuc) (antibody, human IgG1, kappa, V domains shown)
VH: EVQMVQSGAEVKKPGASVKVSCKASGYTFTTYNIHWVRQAPGQGLEWMGDIYPGTGDASYNQKFRDRVTMTRDTSTSTVYMELSSLRSEDTAVYYCATFSRFDGWFAYWGQGTLVTVSS
VL: B1 VL with K27R, S31T, F36Y, S53Y, F98L, P100Y, Q104G, L108V
modifications: non-fucosylated (heavy chain not modified by fucosylation)
notes: also called non-fucosylated antibody of huB1010
B3: huB1010 (antibody, human IgG1, kappa, V domains shown)
VH: B2 VH
VL: B1 VL with K27R, S31T, F36Y, S53Y, F98L, P100Y, Q104G, L108V
notes: Humanized IgG1
B4: 41D12 (positive control antibody, see WO2012123586) (antibody, human IgG1, lambda, V domains shown)
VH: EVQLVESGGGLVQPGGSLRLSCAASGFTFSVYYMNWVRQAPGKGLEWVSDINNEGGTTYYADSVKGRFTISRDNSKNSLYLQMNSLRAEDTAVYYCARDAGYSNHVPIFDSWGQGTLVTVSS
VL: QAVVTQEPSLTVSPGGTVTLTCGLKSGSVTSDNFPTWYQQTPGQAPRLLIYNTNTRHSGVPDRFSGSILGNKAALTITGAQADDEAEYFCALFISNPSVEFGGGTQLTVLG
B5: 41D12 (afuc) (antibody, human IgG1, lambda, V domains shown)
VH: B4 VH
VL: B4 VL
modifications: non-fucosylated (heavy chain not modified by fucosylation)
notes: also called non-fucosylated antibody of 41D12
B6: huB7002 (antibody, human IgG1, kappa, V domains shown)
VH: EVQLVQSGSELKKPGASVKVSCKASGYTFTNYGMNWVRQAPGQGLEWMGWINTYTGEPTYADEFKGRFVFSLDTSVSTAYLQISSLKAEDTAVYYCARGDSFTTEILRNWYFDVWGQGTTVTVSS
VL: DIQMTQSPSSLSASVGDRVTITCGASENIYGALNWYQQKPGKVPKLLIYGATNLADGVPSRFSGSGSGTDFTLTISSLQPEDVATYYCQNVLSTPWTFGGGTKVEIKR
notes: Humanized IgG1
B7: huB7002 (afuc) (antibody, human IgG1, kappa, V domains shown)
VH: B6 VH
VL: B6 VL
modifications: non-fucosylated (heavy chain not modified by fucosylation)
notes: also called non-fucosylated antibody of huB7002
B8: CHF4 (chimeric antibody of F4) (antibody, human IgG1, kappa, V domains shown)
VH: QVQLKQSGAELVKPGASVKMSCKASGDTFPRYNMHWLKQTPGQGLEWIGAIFPGNGETSYNQNFKGKATLTADKSSSTAYMQLNSLTSEDSAVYYCARNSYYDYAWFTYWGQGTLVTVSA
VL: DIVMTQSPASLDVSLGQRATISCRASKSVSSSGYSFMHWYQQKPGQPPKLLISLASNLESGVPARFSGSGSGTDFTLTIYPVEEEDAATYYCQHSREFPPTFGSGTKLEIKR
notes: Murine variable regions on human IgG1 / human light chain constant regions
B9: huB1037 (antibody, human IgG1, kappa, V domains shown)
VH: B2 VH with M4L, T55N, T98R
VL: DIVMSQSPDSLAVSLGERATINCRASRSVSTSGYSYMHWYQQKPGQPPKLLIYLASNLESGVPDRFSGSGSGTNFTLTISSLQAEDVAVYYCQHSRELPYTFGGGTKVEIKR
notes: Humanized IgG1
B10: huB1038 (antibody, human IgG1, kappa, V domains shown)
VH: B2 VH with T55N
VL: B9 VL
notes: Humanized IgG1
B11: CHB1 (chimeric antibody of B1) (antibody, human IgG1, kappa, V domains shown)
VH: QVQMQQSGAELVKPGASVMMSCKASGYTFTTYNIHWIKQTPGQGLEWIGDIYPGNGDASYNQKFRDRATLTADRSSSTAYLQLSSLTSEDSAIYYCATFSRFDGWFAYWGQGTLVTVSA
VL: DIVMSQSPASLAVSLGQRATISCRASRSVSTSGYSYMHWYQQKPGQPPKLLIYLASNLESGVPARFSGSGSGTNFTLNIHPVEEEDAATYYCQHSRELPYTFGGGTKLEIKR
notes: as for B8

Molecular target: T1, human CD70 on cells (CD70-positive …)
Test: flow cytometry on CD70-positive 786-O cells, Alexa Fluor 488 goat anti-human (H+L) detection
Procedure: (§1) 786-O cells (ATCC, CRL-1932) or Raji cells (ATCC, CCL-86) at 1×10⁶ cells/mL were blocked with 1% BSA PBS buffer, followed by the addition of diluted anti-CD70 antibody samples at different concentrations were added, and the mixture was incubated for 1 h. After the plate was washed twice, Alexa Fluor 488-goat anti-human (H+L) antibody (Invitrogen, CAT #A 11013) was added, and the mixture was incubated for 1 h. After the plate was washed twice, fluorescence signals were read using a flow cytometer.

Q: With B1 as the binder, how does the “EC50 (read off the curve)” value read?
A: ~0.02 µg/mL

Q: For B2, which “EC50 (read off the curve)” value is on record?
A: ~0.02 µg/mL

Q: Which “EC50 (read off the curve)” value does the source give for B3 here?
A: ~0.02 µg/mL

Q: How did the “EC50 (read off the curve)” value turn out when B4 was run?
A: ~0.03 µg/mL

Q: Which “EC50 (read off the curve)” value does the source give for B5 here?
A: ~0.03 µg/mL

Q: B6 was tested. Which “EC50 (read off the curve)” value did it give?
A: ~0.02 µg/mL

Molecular target: T1, human CD70 on cells (CD70-positive …)
Test: cell-based or functional assay

Q: Which results are given for B1?
A: IC50 (ng/mL), inhibition of IL-8 secretion mediated by CD70/CD27 binding (U266 cells + HT1080/CD27 cells): 13 ng/mL; Imax (%), maximum inhibition rate of IL-8 secretion from CD27 cells: 92.3%

Q: For B4, which “IC50 (ng/mL), inhibition of IL-8 secretion mediated by CD70/CD27 binding (U266 cells + HT1080/CD27 cells)” value (“IC50 (ng/mL), inhibition” below) is on record?
A: 23.3 ng/mL

Q: And the “Imax (%), maximum inhibition rate of IL-8 secretion from CD27 cells” value (from here on “Imax (%), maximum inhibition rate”)?
A: 70.9%

Q: How did the “IC50 (ng/mL), inhibition” value turn out when B5 was run?
A: 24.2 ng/mL

Q: What about the “Imax (%), maximum inhibition rate” value of the same binder?
A: 71.1%

Q: How did the “IC50 (ng/mL), inhibition” value turn out when B7 was run?
A: 19.8 ng/mL

Q: And the “Imax (%), maximum inhibition rate” value?
A: 91.7%

Q: Which results are given for B6?
A: IC50 (ng/mL), inhibition of IL-8 secretion mediated by CD70/CD27 binding (U266 cells + HT1080/CD27 cells): 21 ng/mL; Imax (%), maximum inhibition rate of IL-8 secretion from CD27 cells: 98.7%

Molecular target: T3, fusion protein of the monkey CD70 protein extracellular domain and Human-IgG1-Fc (monkey CD70-Fc) (monkey)
T3 construct: also called monkey CD70 antigen
T3 sequence (chain, as listed by the source limits assumed): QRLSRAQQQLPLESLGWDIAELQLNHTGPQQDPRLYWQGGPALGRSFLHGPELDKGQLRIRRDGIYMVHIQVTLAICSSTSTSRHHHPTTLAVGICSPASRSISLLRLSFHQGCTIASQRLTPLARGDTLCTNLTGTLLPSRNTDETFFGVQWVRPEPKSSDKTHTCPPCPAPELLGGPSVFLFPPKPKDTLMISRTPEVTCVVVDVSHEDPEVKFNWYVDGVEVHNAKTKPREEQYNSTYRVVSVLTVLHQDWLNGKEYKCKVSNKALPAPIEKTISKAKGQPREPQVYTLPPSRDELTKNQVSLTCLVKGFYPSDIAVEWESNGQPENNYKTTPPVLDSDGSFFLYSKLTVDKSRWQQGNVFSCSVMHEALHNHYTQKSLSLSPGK
Test: ELISA, plate coated with 1 µg/mL monkey CD70-Fc, HRP goat anti-human F(ab')2 detection
Procedure: (§2) The binding ability of the anti-CD70 antibodies was determined by the amount of the antibodies bound to the CD70 antigen protein immobilized on the ELISA plate. 1 μg/mL human CD70-Fc (set forth in SEQ ID NO: 2), monkey CD70-Fc (set forth in SEQ ID NO: 82) and mouse CD70-Fc (set forth in SEQ ID NO: 83) were coated, incubated and blocked. […] OD450 values were measured on a microplate reader.

Q: Does B3 bind?
A: binds

Q: How did the “EC50 (read off the curve)” value turn out when B6 was run?
A: ~0.03 µg/mL

Molecular target: T1, human CD70 on cells (CD70-positive …)
Test: flow cytometry on CD70-positive Raji cells, Alexa Fluor 488 goat anti-human (H+L) detection
Procedure: as §1

Q: With B1 as the binder, how does the “EC50 (read off the curve)” value read?
A: ~0.02 µg/mL

Q: B2 was tested. Which “EC50 (read off the curve)” value did it give?
A: ~0.02 µg/mL

Q: With B3 as the binder, how does the “EC50 (read off the curve)” value read?
A: ~0.02 µg/mL

Q: B4 was tested. Which “EC50 (read off the curve)” value did it give?
A: ~0.01 µg/mL

Q: With B5 as the binder, how does the “EC50 (read off the curve)” value read?
A: ~0.04 µg/mL

Molecular target: fusion protein of the CD70 protein extracellular domain and Human-IgG1-Fc (human CD70-Fc) (human)
Sequence (chain, as listed by the source limits assumed): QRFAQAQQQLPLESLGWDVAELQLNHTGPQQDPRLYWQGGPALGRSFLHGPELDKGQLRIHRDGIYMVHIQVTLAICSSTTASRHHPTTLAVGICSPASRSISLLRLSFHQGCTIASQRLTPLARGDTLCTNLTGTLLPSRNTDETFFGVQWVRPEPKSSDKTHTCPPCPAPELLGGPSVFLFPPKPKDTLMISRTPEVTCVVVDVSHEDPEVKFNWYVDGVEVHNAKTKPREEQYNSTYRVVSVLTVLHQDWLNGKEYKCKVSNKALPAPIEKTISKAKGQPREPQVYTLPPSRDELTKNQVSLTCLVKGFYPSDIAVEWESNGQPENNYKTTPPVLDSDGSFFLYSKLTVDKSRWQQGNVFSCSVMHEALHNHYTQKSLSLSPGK
Test: ELISA, plate coated with 1 µg/mL human CD70-Fc, HRP goat anti-human F(ab')2 detection
Procedure: as §2

Q: With B3 as the binder, how does the “EC50 (read off the curve)” value read?
A: ~0.04 µg/mL

Q: Does B6 bind?
A: binds

Molecular target: T1, human CD70 on cells (CD70-positive …)
Test: flow cytometry competition on CHO-S cells expressing human full-length CD70; blocked ligand: biotin-labeled CD27-Fc, Alexa Fluor 488 streptavidin detection
Procedure: The cell-blocking activity of the anti-CD70 antibodies was assayed by flow cytometry. CHO-S cells expressing human full-length CD70 (Invitrogen, R80007) at 1×10⁶ cells/mL were blocked with 1% BSA PBS buffer, followed by the addition with diluted anti-CD70 antibody samples at different concentrations and biotin-labeled CD27-Fc (set forth in SEQ ID NO: 84), and the mixture was incubated for 1 h. After the plate was washed twice, Alexa Fluor 488-streptavidin (Invitrogen, CAT #S11223) was added, and the mixture was incubated for 1 h. After the plate was washed twice, fluorescence signals were read using a flow cytometer.

Q: B1 was tested. Which “IC50 (read off the curve)” value did it give?
A: ~0.3 µg/mL

Q: Which “IC50 (read off the curve)” value does the source give for B2 here?
A: ~0.3 µg/mL

Q: For B3, which “IC50 (read off the curve)” value is on record?
A: ~0.4 µg/mL

Q: Which “IC50 (read off the curve)” value does the source give for B7 here?
A: ~0.4 µg/mL

Q: B6 was tested. Which “IC50 (read off the curve)” value did it give?
A: ~0.4 µg/mL

Molecular target: T4, fusion protein of the murine CD70 protein extracellular domain and Human-IgG1-Fc (mouse CD70-Fc) (mouse)
T4 construct: also called mouse CD70 antigen
T4 sequence (chain, as listed by the source limits assumed): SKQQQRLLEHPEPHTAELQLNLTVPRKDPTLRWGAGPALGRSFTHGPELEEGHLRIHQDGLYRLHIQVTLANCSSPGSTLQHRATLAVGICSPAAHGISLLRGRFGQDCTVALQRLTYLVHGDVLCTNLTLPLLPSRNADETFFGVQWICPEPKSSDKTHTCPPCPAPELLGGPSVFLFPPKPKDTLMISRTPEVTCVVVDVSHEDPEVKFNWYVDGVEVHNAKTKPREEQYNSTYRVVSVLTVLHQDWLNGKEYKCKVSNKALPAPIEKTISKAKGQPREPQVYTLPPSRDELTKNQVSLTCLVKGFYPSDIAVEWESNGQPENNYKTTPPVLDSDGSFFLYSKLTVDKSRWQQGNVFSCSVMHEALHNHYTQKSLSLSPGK
Test: ELISA, plate coated with 1 µg/mL mouse CD70-Fc, HRP goat anti-human F(ab')2 detection
Procedure: as §2

Q: Does B3 bind?
A: no binding (tested: 10 µg/mL (log 1))

Q: Does B6 bind?
A: no binding (tested: 10 µg/mL (log 1))

Molecular target: T2, His-tagged CD70 protein extracellular …
Test: SPR Biacore T200, antibody captured by anti-human Fc, His-TNC-CD70 in flow, 1:1 model
Procedure: The affinity of the chimeric and humanized antibodies of the present disclosure for the human CD70 antigen was tested using a Biacore instrument. The procedures are as follows:
The human Fc capture molecules were covalently coupled to a CM5 biosensor chip (CAT #BR-1005-30, GE) according to the method described in the instructions of the human Fc capture kit (CAT #BR-1008-39, GE) for affinity capture of the antibodies to be tested. Then, a human His-TNC-CD70 antigen (set forth in SEQ ID NO: 1) flowed through the surface of the chip, and the reaction signal was detected in real time using a Biacore T200 instrument to obtain association and dissociation curves. After the dissociation was completed for each cycle, the biochip was washed and regenerated with a regeneration solution configured in the human antibody capture kit (GE). Data were fitted using a 1:1 model.

Q: What does the source list for B8?
A: Kd: 0.0375 nM; koff: 8.37e-05 s⁻¹; kon: 2.23e+06 M⁻¹ s⁻¹

Q: For B3, which Kd is on record?
A: 0.0355 nM

Q: And the koff?
A: 0.00013 s⁻¹

Q: And the kon?
A: 3.67e+06 M⁻¹ s⁻¹

Q: Which results are given for B9?
A: Kd: 0.0407 nM; koff: 0.00016 s⁻¹; kon: 3.93e+06 M⁻¹ s⁻¹

Q: Which Kd does the source give for B10 here?
A: 0.0561 nM

Q: And the koff?
A: 0.000101 s⁻¹

Q: And the kon?
A: 1.8e+06 M⁻¹ s⁻¹

Q: B6 was tested. Which Kd did it give?
A: 0.0286 nM

Q: And the koff?
A: 0.000174 s⁻¹

Q: And the kon?
A: 6.09e+06 M⁻¹ s⁻¹

Q: Which results are given for B11?
A: Kd: 0.0334 nM; koff: 7.54e-05 s⁻¹; kon: 2.26e+06 M⁻¹ s⁻¹
